Results reported in article PMC2716513.

Experiments:
ADAMTS13 P475S mutant = ADAMTS13 P475S mutant (UniProt Q76LX8)
[1] = target: ADAMTS13 (wild-type recombinant ADAMTS13 with a carboxy-terminal V5 tag) (UniProt Q76LX8)
[2] = target: ADAMTS13 (wild-type recombinant ADAMTS13 with a carboxy-terminal V5 tag) (UniProt Q76LX8); remark: listed apart in the source

fluorescence intensity of the mAb Wh-2-11-1 on the P475S mutant ADAMTS13 (flow cytometry) on addition of VWF, fold increase (data not given) (ADAMTS13 P475S mutant): 1.9 fold
fluorescence intensity of the mAb Wh-2-11-1 on wild-type ADAMTS13 (flow cytometry) on addition of VWF, fold increase (data not given) [1]: 3.5 fold
reactivity of the mAb Wh2-11-1 to intracellular ADAMTS13 (flow cytometry, permeabilized HEK293 cells) after incubation with VWF at 37°C, fold increase [2]: > 10 fold
Substance: von Willebrand Factor (VWF) (from UniProt P04275 764-2813) (natural protein)
